Source: PMC9029033

molecular target: T1, VPA0041-His (Vibrio parahaemolyticus RIMD 2210633) (UniProt Q87K57); experiment: EMSA; settings: EMSA: 20 uL, 10 ng probe (15 ng in Fig 5 legend), 1 ug poly(dI:dC), 4 uL 5x binding buffer (10 mM NaCl, 0.1 mM DTT, 0.1 mM EDTA, 10 mM Tris, pH 7.4), 25 C …
T1 sequence: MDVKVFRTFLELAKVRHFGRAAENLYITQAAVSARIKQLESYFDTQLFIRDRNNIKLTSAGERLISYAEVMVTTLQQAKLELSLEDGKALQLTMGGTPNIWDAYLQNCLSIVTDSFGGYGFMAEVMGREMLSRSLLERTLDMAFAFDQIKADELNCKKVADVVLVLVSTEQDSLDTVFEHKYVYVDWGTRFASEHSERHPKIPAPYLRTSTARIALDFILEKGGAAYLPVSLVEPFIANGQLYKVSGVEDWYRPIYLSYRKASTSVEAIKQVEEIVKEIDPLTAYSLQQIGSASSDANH

For “CATCTTAGTCTCCTTAGTTTATCACTATTTCTTTCAGGCCTTGGGATATTCCCTAGTCACTAACTAGAGGCGGTCGCTTGCCACTAATGATTAATTTGAAAATTAAAAATTTTCTAAAAAAGATCAAAATTGATGATTTTTAGTGACTTGCATTCCACTAAGTTGGGGTTTGCTACCGTTTTAGCGTTAGTTTCCGATGTGCTTTGATCGGCATCGTCGACCTGCAGGCA (double strand) [vpa1548 promoter (promoter-1)]”, which binding is on record?
The binding was “binds”.

How did the binding turn out when “CATGCATCTTTCCTTACAGTCGGCTCGAATACGCCAAGATACAAACAAGATACATCGTCGACCTGCAGGCA (double strand) [vpa0264 promoter-3]” was run?
The binding was “no binding”.

How did the binding turn out when “TGCCTGCAGGTCGACGATAGACATACTTTCAAGGCATAGAGTTACGCCAATTACCAATGAGAGAGGGAGTAAGCTCGTG (double strand) [vpa1550 promoter-4]” was run?
The binding was “binds”.

How did the binding turn out when “TGCCTGCAGGTCGACGATCAAGTCAATGTTTTAAAAGAATATTCAAGTTAGGCACGTATCTTGCGATAAGACATACTTTCAAGGCATAGAGTTACGCCAATTACCAATGAGAGAGGGAGTAAGCTCGTG (double strand) [vpa1550 promoter-3]” was run?
Its binding is “binds”.

With “TGCCTGCAGGTCGACGATGGAACACATAAGGTGGAAAATACACTTCCTCTCAAATTTAAATAGTATCGCAAGTCAATGTTTTAAAAGAATATTCAAGTTAGGCACGTATCTTGCGATAAGACATACTTTCAAGGCATAGAGTTACGCCAATTACCAATGAGAGAGGGAGTAAGCTCGTG (double strand) [vpa1550 promoter-2]” as the sequence, how does the binding read?
Its binding is “binds”.

With “TGCCTGCAGGTCGACGATGTTTGTCCTGTCGAAAGAATTCCTAATAACAGTATCCACTTTGAGGAAATTAGAGTTTTCCCCCTAATTTTTTTGCTTTCCGTAAACCGGAAGTTTGGTTTCCACTCTTGTTTGTAAGTCATTGATAAATATAAATAAAATTTATGGCACGTATCTTGTTTGTATCTTGGCGTATTCGAGCCGACTGTAAGGAAAGATGCATG (double strand) [vpa0264 promoter]” as the sequence, how does the binding read?
Its binding is “binds”.

With “TGCCTGCAGGTCGACGATTAGAGTTTTCCCCCTAATTTTTTTGCTTTCCGTAAACCGGAAGTTTGGTTTCCACTCTTGTTTGTAAGTCATTGATAAATATAAATAAAATTTATGGCACGTATCTTGTTTGTATCTTGGCGTATTCGAGCCGACTGTAAGGAAAGATGCATG (double strand) [vpa0264 promoter-1]” as the sequence, how does the binding read?
The binding was “binds”.

How did the binding turn out when “TGCCTGCAGGTCGACGATTCCACTCTTGTTTGTAAGTCATTGATAAATATAAATAAAATTTATGGCACGTATCTTGTTTGTATCTTGGCGTATTCGAGCCGACTGTAAGGAAAGATGCATG (double strand) [vpa0264 promoter-2]” was run?
Its binding is “binds”.

For “TGCCTGCAGGTCGACGATTTAGTCGCCTTGTCTTATAGGGAAACACTAGATGTTTTCGAGAGGAAGGCGGAACACATAAGGTGGAAAATACACTTCCTCTCAAATTTAAATAGTATCGCAAGTCAATGTTTTAAAAGAATATTCAAGTTAGGCACGTATCTTGCGATAAGACATACTTTCAAGGCATAGAGTTACGCCAATTACCAATGAGAGAGGGAGTAAGCTCGTG (double strand) [vpa1550 promoter (promoter-1)]”, which binding is on record?
The binding was “binds”.
